Experimental findings from publication PMC6921899, “AtDAT1 Is a Key Enzyme of D-Amino Acid Stimulated Ethylene Production in Arabidopsis thaliana” (Frontiers in Plant Science, 2019) are described below.

Substrate in the data set: CSCC[C@@H](N)C(=O)O
Kind of data set: D-Ala formation by UPLC-MS after derivatization; Hofstee linearization. The following applies: pyruvate 50 mM as amino acceptor, standard assay: potassium phosphate 100 mM pH 8, PLP 50 µM, 37 °C. In kind it is biochemical, Arabidopsis thaliana.

The term Km denotes the substrate concentration at which the rate is half of its maximum.

B1: AtDAT1(Col-0) (Arabidopsis thaliana) (protein)
chain: MAGLSLEFTVNTWNLRSLSQVPCPLRHGFRFPRRLTRRRTILMCSDSSSQSWNVPVLSSYEVGERLKLARGGQQFLAMYSSVVDGITTDPAAMVLPLDDHMVHRGHGVFDTALIINGYLYELDQHLDRILRSASMAKIPLPFDRETIKRILIQTVSVSGCRDGSLRYWLSAGPGDFLLSPSQCLKPTLYAIVIKTNFAINPIGVKVVTSSIPIKPPEFATVKSVNYLPNVLSQMEAEAKGAYAGIWVCKDGFIAEGPNMNVAFVVNGGKELVMPRFDNVLSGCTAKRTLTLAEQLVSKGILKTVKVMDVTVEDGKKADEMMLIGSGIPIRPVIQWDEEFIGEGKEGPIAKALLDLLLEDMRSGPPSVRVLVPY
notes: N-terminal GST tag and C-terminal His tag (pGEX-2TM-GW); E. coli BL21(DE3) RIL; Ni-NTA purified
Turning to B1, the Km came out at 17.4 mM.
